From the Human Domainome abundance scans (Beltran et al. 2025)
± gives the uncertainty stated by the source.

B1: Gamma-crystallin D, residues 90 to 170; numbered along this chain, P07320 (parent)
chain: IRLYEREDYRGQMIEFTEDCSCLQDRFRFNEIHSLNVLEGSWVLYELSNYRGRQYLLMPGDYRRYQDWGATNARVGSLRRV

Variants of: B1
Test: abundance fitness (aPCA) (normalised: wild type 0, dead -1); higher = more abundant; growth selection in yeast, the domain comes from the species named
Conditions: Homo sapiens

Abundance fitness, by site and new letter:
W68: A 0.043 ± 0.047; K 0.16 ± 0.14; D 0.062 ± 0.22; I 0.116 ± 0.14; F 0.194 ± 0.26; L 0.164 ± 0.079
D67: H -0.034 ± 0.24; V -0.043 ± 0.084; Q -0.08 ± 0.092; Y -0.125 ± 0.3; A -0.101 ± 0.087; I -0.155 ± 0.22; L -0.084 ± 0.086; M 0.047 ± 0.19; E 0.049 ± 0.13; S -0.005 ± 0.082; P -0.19 ± 0.076; W -0.064 ± 0.15; F -0.062 ± 0.4; R -0.208 ± 0.075; C -0.148 ± 0.35
Q66: T -0.073 ± 0.087; F -0.004 ± 0.15; S 0.018 ± 0.095; R -0.06 ± 0.077; H 0.108 ± 0.18; V -0.038 ± 0.065; C -0.067 ± 0.14; E -0.022 ± 0.13; D -0.14 ± 0.12; P -0.016 ± 0.1; W 0.018 ± 0.086; K 0.269 ± 0.17; N -0.074 ± 0.28; G 0.038 ± 0.053; M -0.048 ± 0.15
P59: N -0.027 ± 0.15; K -0.118 ± 0.13; R -0.088 ± 0.073; A 0.088 ± 0.092; M -0.037 ± 0.13; W -0.083 ± 0.12; I -0.157 ± 0.38; H -0.052 ± 0.24; S -0.007 ± 0.079; G 0.065 ± 0.076; E -0.005 ± 0.1; C 0.011 ± 0.15; Y -0.222 ± 0.34; F -0.353 ± 0.22; V -0.099 ± 0.068; L -0.085 ± 0.082; Q 0.05 ± 0.13; D 0.14 ± 0.15
Y62: Q -0.301 ± 0.14; T -0.251 ± 0.093; F -0.147 ± 0.21; I -0.061 ± 0.3; V 0.041 ± 0.066; E -0.401 ± 0.085; H -0.076 ± 0.18; L 0.178 ± 0.068; W 0.026 ± 0.094; R 0.229 ± 0.06; N -0.125 ± 0.14; M 0.096 ± 0.086; A 0.153 ± 0.056; P -0.919 ± 0.17; K 0.11 ± 0.16; D -0.904 ± 0.18; C 0.264 ± 0.15; S 0.016 ± 0.058; G -0.242 ± 0.064
G60: S 0.064 ± 0.086; T -0.122 ± 0.14; L -0.197 ± 0.064; K 0.029 ± 0.12; W -0.133 ± 0.1; E 0.155 ± 0.09; A -0.038 ± 0.069; Y -0.176 ± 0.16; F -0.188 ± 0.2; H -0.225 ± 0.2; D -0.08 ± 0.15; Q 0.001 ± 0.14; N -0.167 ± 0.34; P -0.702 ± 0.17; M -0.128 ± 0.11; R -0.04 ± 0.055
R63: P -0.012 ± 0.09; N -0.079 ± 0.31; T 0.039 ± 0.11; Q 0.072 ± 0.15; S -0.037 ± 0.093; C 0.097 ± 0.11; E 0.09 ± 0.093; F 0.004 ± 0.17; A 0.024 ± 0.065; I 0.113 ± 0.21; W 0.031 ± 0.095; L 0.088 ± 0.12; D 0.129 ± 0.21; M 0.132 ± 0.29; K 0.061 ± 0.13
M58: L 0.015 ± 0.087; H 0.008 ± 0.18; I -0.047 ± 0.13; P 0.201 ± 0.11; V 0.032 ± 0.063; Y 0.174 ± 0.2; S 0.055 ± 0.072; N 0.037 ± 0.17; G 0.093 ± 0.052; T 0.125 ± 0.13; W -0.118 ± 0.09; E 0.043 ± 0.11; Q 0.066 ± 0.12; R -0.02 ± 0.062; F -0.073 ± 0.17
Y65: I 0.053 ± 0.19; A -0.093 ± 0.084; P 0.051 ± 0.11; T -0.076 ± 0.16; H 0.099 ± 0.16; E 0.192 ± 0.14; V -0.047 ± 0.083; S 0.041 ± 0.099; M 0.089 ± 0.17; C -0.144 ± 0.12; N 0.096 ± 0.15; Q -0.028 ± 0.18; L 0.093 ± 0.087; G 0.159 ± 0.06; K -0.113 ± 0.11; W 0.005 ± 0.14; F -0.174 ± 0.15; D 0.044 ± 0.11
R64: K -0.287 ± 0.23; Y 0.035 ± 0.2; N 0.159 ± 0.34; M -0.11 ± 0.17; P -0.423 ± 0.12; C -0.141 ± 0.11; F 0.04 ± 0.11; W 0.095 ± 0.081; D 0.167 ± 0.19; T 0.063 ± 0.14; G -0.017 ± 0.078; E -0.226 ± 0.15; V -0.044 ± 0.075; A -0.019 ± 0.068; Q -0.031 ± 0.12
D61: S -0.027 ± 0.078; E 0.043 ± 0.11; F -0.094 ± 0.15; R -0.109 ± 0.085; I -0.332 ± 0.15; N -0.016 ± 0.18; Q -0.038 ± 0.12; H -0.25 ± 0.36; G 0.004 ± 0.058; K -0.096 ± 0.17; M -0.008 ± 0.14; L -0.093 ± 0.092; W -0.237 ± 0.12; T -0.024 ± 0.18; V -0.07 ± 0.081
